Reference: patent US10766960 (dated 2020)
Numbering of substitutions follows the chain as printed. Where “and” joins values, the source holds several entries; their conditions need not be identical. Identical values can stand only once. One block for each binder: values may come before it.

Legend:
Assay in all cases: SPR
FcgRIIIa V = FcgRIIIa V (human, UniProt P08637)
FcgRIIIa F = FcgRIIIa F (human, UniProt P08637)
FcgRIIa R = target: T1, FcgRIIa R (human, UniProt P12318)
T1 chain: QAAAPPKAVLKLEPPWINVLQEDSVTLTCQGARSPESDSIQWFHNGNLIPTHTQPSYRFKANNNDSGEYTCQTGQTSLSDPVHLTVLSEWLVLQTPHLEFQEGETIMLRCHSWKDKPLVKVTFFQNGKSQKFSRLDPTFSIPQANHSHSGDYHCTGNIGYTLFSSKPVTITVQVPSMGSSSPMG

FcgRIa = target: T2, FcgRIa (human, UniProt P12314)
T2 chain: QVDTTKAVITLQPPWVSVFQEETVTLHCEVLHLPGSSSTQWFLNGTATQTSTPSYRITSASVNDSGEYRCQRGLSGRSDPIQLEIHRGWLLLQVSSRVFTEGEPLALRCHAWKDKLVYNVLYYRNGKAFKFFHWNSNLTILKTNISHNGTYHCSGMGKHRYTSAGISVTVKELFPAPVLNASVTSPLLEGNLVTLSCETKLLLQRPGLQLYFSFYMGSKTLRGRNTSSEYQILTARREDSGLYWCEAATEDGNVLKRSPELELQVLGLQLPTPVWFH

FcgRIIa H = target: T3, FcgRIIa H (human, UniProt P12318)
T3 chain: T1 chain with R134H

FcgRIIb = target: T4, FcgRIIb (human, UniProt P31994)
T4 chain: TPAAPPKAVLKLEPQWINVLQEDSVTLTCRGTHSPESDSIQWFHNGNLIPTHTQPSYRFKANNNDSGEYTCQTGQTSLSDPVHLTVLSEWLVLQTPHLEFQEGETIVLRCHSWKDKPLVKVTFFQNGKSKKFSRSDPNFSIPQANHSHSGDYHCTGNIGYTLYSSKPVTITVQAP

Sequence of FcgRIIIa V (P08637 17-208 F176V): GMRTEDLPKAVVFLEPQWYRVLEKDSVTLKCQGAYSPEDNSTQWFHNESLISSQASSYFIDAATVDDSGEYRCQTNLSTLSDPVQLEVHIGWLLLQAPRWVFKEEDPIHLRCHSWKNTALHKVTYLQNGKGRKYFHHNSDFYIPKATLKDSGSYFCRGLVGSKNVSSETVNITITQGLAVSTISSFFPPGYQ
Sequence of FcgRIIIa F (P08637 17-208): as the sequence (P08637 17-208 F176V) above, with V160F counted along it

B1: H240-FA030/H240-FB082/L73-k0 (antibody)
chain 1: QDQLVQSGAEVKKPGASVKVSCKASGFNIKDTYIQWVRQAPGQGLEWMGRIDPLRKQTKYREKFEGRVTITADTSTNTAYMELSSLRSEDTAVYYCVRSGREFDYWGQGTLVTVSSASTKGPSVFPLAPSSKSTSGGTAALGCLVKDYFPEPVTVSWNSGALTSGVHTFPAVLQSSGLYSLSSVVTVPSSSLGTKTYTCNVNHKPSNTKVDKKVEPKSCDKTHTCPPCPAPEYYWGPSVFLFPPKPKDTLMISRTPEVTCVVVDVSDEEPKVKFNWYVDGVEVHNAKTKPREEQYNATYRVVSVLTVLHQDWLNGKEYKCKVSNKALPAPIEKTISKAKGQPREPQVYTLPPSRKEMTKNQVSLTCLVKGFYPSDIAVEWESNGQPENNYKTTPPVLDSDGSFFLYSKLTVDKSRWQQGNVFSCSVMHEALHNRYTQKSLSLSP
chain 2: QDQLVQSGAEVKKPGASVKVSCKASGFNIKDTYIQWVRQAPGQGLEWMGRIDPLRKQTKYREKFEGRVTITADTSTNTAYMELSSLRSEDTAVYYCVRSGREFDYWGQGTLVTVSSASTKGPSVFPLAPSSKSTSGETAALGCLVEDYFPEPVTVSWNSGALTSGVHTFPAVLQSSGLYSLSSVVTVPSSSLGTQTYICNVNHKPSNTKVDKKVEPKSCDKTHTCPPCPAPELLGGPSVFLFPPKPKDTLMISRTPEVTCVVVDVSHEEPEVQFNWYVDGVEVHNAETKPREEQYNSTYRVVSVLTVLHQDWLNGKEYKCKVSNDALPMPIEETISKAKGQPREPQVYTLPPSREEMTKNQVSLTCLVKGFYPSDIAVEWESEGQPENNYKTTPPVLDSDGSFFLYSKLTVDKSRWQQGNVFSCSVMHEALHNHYTQESLSLSP
chain 3: DIQMTQSPSSLSASVGDRVTITCRASQDIHKYIAWYQQKPGQAPRLLIQYTSTLQPGVPSRFSGSGSGTDYTFTISSLQPEDIATYYCLQYEQLRTFGGGTKVEIKRTVAAPSVFIFPPSDEQLKSGTASVVCLLNNFYPREAKVQWKVDNALQSGNSQESVTEQDSKDSTYSLSSTLTLSKADYEKHKVYACEVTHQGLSSPVTKSFNRGEC
Kd (FcgRIIIa V): 1.3 nM | Kd (FcgRIIIa F): 4.3 nM | Kd (FcgRIIa R): 300 nM | Kd (FcgRIa): 0.092 nM | Kd (FcgRIIa H): 88 nM | Kd (FcgRIIb): 1900 nM

B4: H240-FA024/H240-FB059/L73-k0 (antibody)
chain 1: B1 chain 1 with M357K
chain 2: B1 chain 2 with E383N
chain 3: B1 chain 3
Kd (FcgRIIIa V): 1.3 nM | Kd (FcgRIIIa F): 4.4 nM | Kd (FcgRIIa R): 290 nM | Kd (FcgRIa): 0.089 nM | Kd (FcgRIIa H): 93 nM | Kd (FcgRIIb): 1600 nM

B5: H240-FA030/H240-FB059/L73-k0 (antibody)
chain 1: B1 chain 1
chain 2: B1 chain 2 with E383N
chain 3: B1 chain 3
Kd (FcgRIIIa V): 1.2 nM and 1.4 nM | Kd (FcgRIIIa F): 3.9 nM and 4.8 nM | Kd (FcgRIIa R): 260 nM and 250 nM | Kd (FcgRIa): 0.082 nM and 0.12 nM | Kd (FcgRIIa H): 85 nM | Kd (FcgRIIb): 1500 nM

B7: H240-FA024/H240-FB065/L73-k0 (antibody)
chain 1: B1 chain 1 with M357K
chain 2: B1 chain 2 with G136E, E137S, E146K, S191N, L192F, I198T, N202D, K213T, E383N
chain 3: B1 chain 3
Kd (FcgRIIIa V): 1.4 nM | Kd (FcgRIIIa F): 5 nM | Kd (FcgRIIa R): 300 nM | Kd (FcgRIa): 0.15 nM | Kd (FcgRIIa H): 95 nM | Kd (FcgRIIb): 1700 nM

B10: H240-FA021/H240-FB059/L73-k0 (antibody)
chain 1: B1 chain 1 with K271E, M357K, V396K
chain 2: B1 chain 2 with E383N
chain 3: B1 chain 3
Kd (FcgRIIIa V): 1.7 nM | Kd (FcgRIIIa F): 4.4 nM | Kd (FcgRIIa R): 280 nM | Kd (FcgRIa): 0.069 nM | Kd (FcgRIIa H): 92 nM | Kd (FcgRIIb): 1300 nM

B12: H240-FA030/H240-FB084/L73-k0 (antibody)
chain 1: B1 chain 1
chain 2: B1 chain 2 with G136E, E137S, S191N, L192F, I198T, N202D, K213T
chain 3: B1 chain 3
Kd (FcgRIIIa V): 1.3 nM | Kd (FcgRIIIa F): 4.2 nM | Kd (FcgRIIa R): 270 nM | Kd (FcgRIa): 0.12 nM | Kd (FcgRIIa H): 88 nM | Kd (FcgRIIb): 2500 nM

B14: H240-FA012/H240-FB001/L73-k0 (antibody)
chain 1: B1 chain 1 with T198I
chain 2: B1 chain 2 with E137G, E146K, E287K, E383N
chain 3: B1 chain 3
Kd (FcgRIIIa V): 1.5 nM | Kd (FcgRIIIa F): 6.3 nM | Kd (FcgRIIa R): 350 nM | Kd (FcgRIa): 0.076 nM | Kd (FcgRIIa H): 110 nM | Kd (FcgRIIb): 1700 nM

B15: H240-FA030/H240-FB065/L73-k0 (antibody)
chain 1: B1 chain 1
chain 2: B1 chain 2 with G136E, E137S, E146K, S191N, L192F, I198T, N202D, K213T, E383N
chain 3: B1 chain 3
Kd (FcgRIIIa V): 1.1 nM | Kd (FcgRIIIa F): 4.6 nM | Kd (FcgRIIa R): 340 nM | Kd (FcgRIa): 0.1 nM | Kd (FcgRIIa H): 99 nM | Kd (FcgRIIb): 2400 nM

Binders with a lower Kd (FcgRIIa H), results first:

Kd (FcgRIIIa V): 1 nM | Kd (FcgRIIIa F): 3.4 nM | Kd (FcgRIIa R): 310 nM | Kd (FcgRIa): 0.12 nM | Kd (FcgRIIa H): 80 nM | Kd (FcgRIIb): 1600 nM
B2: H240-FA009/H240-FB033/L73-k0 (antibody)
chain 1: B1 chain 1 with T198I, K271E
chain 2: B1 chain 2 with E146K, E287K, E383N
chain 3: B1 chain 3

Kd (FcgRIIIa V): 1.3 nM | Kd (FcgRIIIa F): 4.6 nM | Kd (FcgRIIa R): 240 nM | Kd (FcgRIa): 0.13 nM | Kd (FcgRIIa H): 80 nM | Kd (FcgRIIb): 1500 nM
B3: H240-FA024/H240-FB082/L73-k0 (antibody)
chain 1: B1 chain 1 with M357K
chain 2: B1 chain 2
chain 3: B1 chain 3

Kd (FcgRIIIa V): 0.89 nM | Kd (FcgRIIIa F): 4.3 nM | Kd (FcgRIIa R): 270 nM | Kd (FcgRIa): 0.051 nM | Kd (FcgRIIa H): 72 nM | Kd (FcgRIIb): 1400 nM
B6: H240-FA009/H240-FB052/L73-k0 (antibody)
chain 1: B1 chain 1 with T198I, K271E
chain 2: B1 chain 2 with E137G, E146K, K213T, E287K, E383N
chain 3: B1 chain 3

Kd (FcgRIIIa V): 1.1 nM | Kd (FcgRIIIa F): 4.4 nM | Kd (FcgRIIa R): 270 nM | Kd (FcgRIa): 0.05 nM | Kd (FcgRIIa H): 74 nM | Kd (FcgRIIb): 1700 nM
B8: H240-FA009/H240-FB047/L73-k0 (antibody)
chain 1: B1 chain 1 with T198I, K271E
chain 2: B1 chain 2 with E137G, E146K, E287K
chain 3: B1 chain 3

Kd (FcgRIIIa V): 1.4 nM | Kd (FcgRIIIa F): 3.9 nM | Kd (FcgRIIa R): 240 nM | Kd (FcgRIa): 0.078 nM | Kd (FcgRIIa H): 69 nM | Kd (FcgRIIb): 1300 nM
B9: H240-FA021/H240-FB083/L73-k0 (antibody)
chain 1: B1 chain 1 with K271E, M357K, V396K
chain 2: B1 chain 2 with G136E, E137S, S191N, L192F, I198T, N202D, K213T, E383N
chain 3: B1 chain 3

Kd (FcgRIIIa V): 1 nM | Kd (FcgRIIIa F): 4.4 nM | Kd (FcgRIIa R): 250 nM | Kd (FcgRIa): 0.13 nM | Kd (FcgRIIa H): 70 nM | Kd (FcgRIIb): 1400 nM
B11: H240-FA009/H240-FB016/L73-k0 (antibody)
chain 1: B1 chain 1 with T198I, K271E
chain 2: B1 chain 2 with E137G, E146K, N202D, E287K, E383N
chain 3: B1 chain 3

Kd (FcgRIIIa V): 1.5 nM | Kd (FcgRIIIa F): 4.2 nM | Kd (FcgRIIa R): 230 nM | Kd (FcgRIa): 0.06 nM | Kd (FcgRIIa H): 77 nM | Kd (FcgRIIb): 1600 nM
B13: H240-FA021/H240-FB082/L73-k0 (antibody)
chain 1: B1 chain 1 with K271E, M357K, V396K
chain 2: B1 chain 2
chain 3: B1 chain 3

Kd (FcgRIIIa V): 0.78 nM | Kd (FcgRIIIa F): 3.7 nM | Kd (FcgRIIa R): 280 nM | Kd (FcgRIa): 0.051 nM | Kd (FcgRIIa H): 70 nM | Kd (FcgRIIb): 2200 nM
B16: H240-FA009/H240-FB021/L73-k0 (antibody)
chain 1: B1 chain 1 with T198I, K271E
chain 2: B1 chain 2 with E137G, E146K, E383N
chain 3: B1 chain 3
